This note sets out measurements from paper PMC11266601.

The assay concerns the target RDTND-RIDC/A (DUF1-RIDC/A, residues 1959–2901, C2838 to alanine), from the 6×His construct (V. vulnificus MO6-24/O). The assay is described as follows: ITC. In general terms: In ITC the heat of successive injections is recorded.

On to “Human calmodulin2 (CaM), 6×His/GST tag cleaved (from UniProt P0DP24 1-149) (natural protein)”, for which the stoichiometry N (usually the number of molecules, sites or subunits per partner or assembly) came out at 1.
